# PMC8248824 (Acta Crystallographica. Section F, Structural Biology …, 2021)
# T1: biotinylated HER3 domain 4 with N-terminal AviTag and His6 tag (Homo sapiens, biotin (in vitro biotinylation of the AviTag))
# T1 construct: also called biotinylated HER3d4; HER3d4; source: Sf9 (baculovirus), secreted, purified (IMAC, in vitro biotinylation, Superdex 75 SEC); not shown: AviTag, N-terminal, kept
# T1 chain: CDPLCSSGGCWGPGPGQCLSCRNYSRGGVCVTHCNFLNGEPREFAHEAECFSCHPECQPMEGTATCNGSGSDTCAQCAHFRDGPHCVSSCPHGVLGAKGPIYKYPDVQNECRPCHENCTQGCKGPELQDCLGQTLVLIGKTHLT
# T2: HER3 extracellular domain 4 (HER3d4) without AviTag, deglycosylated (Homo sapiens)
# T2 construct: PNGase F treatment may have turned glycosylated Asn into Asp (surmise); also called HER3 domain 4; ErbB3 domain 4; source: Sf9 (baculovirus), secreted, purified (IMAC), deglycosylated with PNGase F, ConA Sepharose
# T2 chain: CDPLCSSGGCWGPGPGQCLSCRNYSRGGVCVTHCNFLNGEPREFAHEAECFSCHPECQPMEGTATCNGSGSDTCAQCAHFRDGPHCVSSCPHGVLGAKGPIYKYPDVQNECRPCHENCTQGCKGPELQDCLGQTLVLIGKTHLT
# T3: HER3 extracellular domain 4, biotinylated (N-terminal AviTag and His6 tag) (human, biotin (in vitro biotinylation, AviTag))
# T3 construct: HER3 (ErbB3) extracellular domain 4, human, residues 500-643 of UniProt entry P21860; also called HER3d4; HER3 domain 4; source: Sf9 insect cells (baculovirus), secreted, purified (IMAC, Superdex 75), biotinylated in vitro; not shown: AviTag, N-terminal, kept
# T3 chain: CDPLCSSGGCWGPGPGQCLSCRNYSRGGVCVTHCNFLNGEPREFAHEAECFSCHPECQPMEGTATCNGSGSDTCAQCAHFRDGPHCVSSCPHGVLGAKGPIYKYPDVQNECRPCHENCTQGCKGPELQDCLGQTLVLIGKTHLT
# Molecular target: biotinylated HER3 domain 4 with N-terminal AviTag and His6 tag (Homo sapiens)
# Assay: SPR; ProteOn XPR36, biotinylated HER3d4 on a NeutrAvidin NLC chip; monomeric DARPins injected at 2.5, 7.5, 22, 67 and 200 nM, 60 ul/min; PBS with 0.005% Tween-20; kinetic titration model
# Conditions: not given
row,Kd,Binder
1,8.1 nM,"DARPin D3 (designed binder, N2C DARPin selected by ribosome display; source: E. coli XL1 Blue, purified (HisPur Cobalt Spin Plates)) GSDLGKKLLEAARAGQDDEVRILMANGADVNAFDHSGSTPLHLAAAIGHLEIVEVLLKYGADVNAEDNWGNTPLHQAAWVGHREIVEVLLKYGADVNAQDKFGKTAFDISIDNGNEDLAEILQKLN"
2,4.5 nM,"DARPin D6 (designed binder, N3C DARPin selected by ribosome display; source: E. coli XL1 Blue, purified (HisPur Cobalt Spin Plates)) GSDLGKKLLEAARAGQDDEVRILMANGADVNAQDVSGQTPLHLAAIWGHLEIVEVLLKTGADVNAWDHWGNTPLHLAAWQGHLEIVEVLLKAGTDVNAKDSEGFTPLHLAAWWGHLEIVEVLLKHGADVNAQDKFGKTPFDLAIDNGNEDIAEVLQKAAKLN"

# Molecular target: T1, biotinylated HER3 domain 4 with …
# Assay: as above
# Conditions: both partners purified
row,binding result,Binder
1,binds,"DARPin D5 from the pQiq_FLAG expression vector (N-terminal His6 tag, C-terminal FLAG tag) (designed binder, DARPin D5 itself, as printed within the crystallisation construct (from Asp13); source: E. coli XL1 Blue, purified (HisPur Cobalt Spin Plates)) DLGKKLLEAARAGQDDEVRILMANGADVNAFDHNGSTPLHLAAAIGHLEIVEVLLKYGADVNAEDNWGNTPLHQAAWVGHLEIVEVLLKNGADVNAQDKFGKTAFDISIDNGNEDLAEILQKLN"

# Molecular target: T2, HER3 extracellular domain 4 (HER3d4) …
# Assay: crystal structure; DARPin D5 incubated with HER3d4 at a 1:1.2 molar ratio, complex purified by gel filtration in PBS; sitting drop, 277 K; two crystal forms, P2(1) at 2.3 A and P2(1)2(1)2(1) at 2.0 A
# Conditions: both partners purified
row,binding result,Binder
1,binds,"DARPin D5 (designed ankyrin-repeat protein D5), His6 tag removed by 3C protease (designed binder, N2C DARPin selected by ribosome display; Carries the framework mutation L86Q against the DARPin consensus; source: E. coli XL1 Blue, purified (Ni-NTA, 3C protease cleavage, reverse Ni-NTA); not shown: His6, N-terminal, cleaved) GPGSDLGKKLLEAARAGQDDEVRILMANGADVNAFDHNGSTPLHLAAAIGHLEIVEVLLKYGADVNAEDNWGNTPLHQAAWVGHLEIVEVLLKNGADVNAQDKFGKTAFDISIDNGNEDLAEILQKLN"

# Molecular target: T3, HER3 extracellular domain 4, …
# Assay: SPR; ProteOn XPR36, NeutrAvidin NLC chip; biotinylated HER3d4 immobilised; monomeric DARPins injected at 2.5, 7.5, 22, 67 and 200 nM (duplicates), 60 µl/min, 5 min association, 5 min dissociation; PBS with 0.005% Tween-20; kinetic titration model
# Conditions: both partners purified
Binder,Kd,koff,kon
"DARPin D7 (designed binder, N3C DARPin selected by ribosome display; source: E. coli XL1 Blue, purified (HisPur Cobalt Spin Plates)) GSDLGKKLLEATRAGQDDEVRILMANGADVNAQDVSGQTPLHLAAIWGHLEIVEVLLKTGADVNAQDWFGETPLHLAAVQGHLEIVEVLLKTGADVNAWDAYGHTPLHLAANYGHLEIVEVLLKHGADVNAQDKFGKTPFDLAIDNGNEDIAEVLQKAAKLN",7.5 nM,0.00147 s⁻¹,196000 M⁻¹ s⁻¹
"DARPin D4 (designed binder, N2C DARPin selected by ribosome display; source: E. coli XL1 Blue, purified (HisPur Cobalt Spin Plates)) GSDLGKKLLEAARAGQDDEVRILMANGADVNAFDHNGSTPLHLAAAIGHLEIVEVLLKYGADVNAEDNWGNTPLHQAAWVGHREIVEVLLKYGADVNAQDKFGKTAFDISIDNGNEDLAEILQKLN",4.4 nM,0.00669 s⁻¹,1.51e+06 M⁻¹ s⁻¹
"DARPin D1 (designed binder, N2C DARPin selected by ribosome display; source: E. coli XL1 Blue, purified (HisPur Cobalt Spin Plates)) GSDLGKKLLEAARAGQDDEVRILMTNGADVNAFDHNGSTPLHLAAAIGHLEIVEVLLKYGADVNAEDNWGNTPLHQAAWVGHREIVEVLLKYGVDVNAQDKFGKTAFDISIDNGNEDLAEILQKLN",7.6 nM,0.00932 s⁻¹,1.23e+06 M⁻¹ s⁻¹
"DARPin D3 (designed binder, N2C DARPin selected by ribosome display; source: E. coli XL1 Blue, purified (HisPur Cobalt Spin Plates)) GSDLGKKLLEAARAGQDDEVRILMANGADVNAFDHSGSTPLHLAAAIGHLEIVEVLLKYGADVNAEDNWGNTPLHQAAWVGHREIVEVLLKYGADVNAQDKFGKTAFDISIDNGNEDLAEILQKLN",–,0.0109 s⁻¹,1.35e+06 M⁻¹ s⁻¹
"DARPin D6 (designed binder, N3C DARPin selected by ribosome display; source: E. coli XL1 Blue, purified (HisPur Cobalt Spin Plates)) GSDLGKKLLEAARAGQDDEVRILMANGADVNAQDVSGQTPLHLAAIWGHLEIVEVLLKTGADVNAWDHWGNTPLHLAAWQGHLEIVEVLLKAGTDVNAKDSEGFTPLHLAAWWGHLEIVEVLLKHGADVNAQDKFGKTPFDLAIDNGNEDIAEVLQKAAKLN",–,0.000623 s⁻¹,138000 M⁻¹ s⁻¹
"DARPin D8 (designed binder, N3C DARPin selected by ribosome display; source: E. coli XL1 Blue, purified (HisPur Cobalt Spin Plates)) GSDLGKKLLEAARAGQDDEVRILMANGADVNAQDVSGQTPLHLAAIWGHLEIVEVLLKTGADVNAWDHWGNTPLHLAAWQGHLEIVEVLLKAGADVNAKDSEGFTPLHLAAWWGHLEIVEVLLKHGADVNAQDKFGKTPFDLAIDNGNEDIAEVLQKAAKLN",5 nM,0.000791 s⁻¹,158000 M⁻¹ s⁻¹

# Now from value to binder:
Kd,koff,kon,Binder
6.9 nM,0.00856 s⁻¹,1.25e+06 M⁻¹ s⁻¹,"DARPin D5 (His6- and FLAG-tagged form used for characterisation) (designed binder, N2C DARPin selected by ribosome display; source: E. coli XL1 Blue, purified (HisPur Cobalt Spin Plates)) GSDLGKKLLEAARAGQDDEVRILMANGADVNAFDHNGSTPLHLAAAIGHLEIVEVLLKYGADVNAEDNWGNTPLHQAAWVGHLEIVEVLLKNGADVNAQDKFGKTAFDISIDNGNEDLAEILQKLN"
5.7 nM,0.00783 s⁻¹,1.37e+06 M⁻¹ s⁻¹,"DARPin D2 (designed binder, N2C DARPin selected by ribosome display; source: E. coli XL1 Blue, purified (HisPur Cobalt Spin Plates)) GSDLGKKLLEAARAGQDDEVRVLMANGADVNAFDHNGSTPLHLAAAIGHLEIVEVLLKYGADVNAEDNWGNTPLHQAAWVGHREIVEVLLKYGADVNAQDKFGKTAFDISIDNGNEDLAEILQKLN"
